The source of these data is patent US12097241B2, “Methods of treating kidney failure, and/or improving or stablizing renal function using modified relaxin polypeptides” (BRISTOL-MYERS SQUIBB COMPANY, priority 2017, dated 2024).

Entries after “also recorded” stand apart in the source; their conditions may differ.

The conditions of series [1]: in vivo; cited from earlier work.
The subject of series [2] is renal tubular epithelial cells. Description: Rat toxicity studies, kidney histopathology. The series is classed as in vivo, Sprague Dawley rats. The note with it: rats. On the procedure: FIGS. 7A-7D. PEG-related renal cortical tubule epithelial vacuolation in female Sprague Dawley rats. Kidney from rats treated subcutaneously (SQ) once a day with vehicle or relaxin analogs. […] FIG. 7A: Vehicle (150 mM Arg in 10 mM citrate buffer pH 5.5) SQ for 10 days. FIG. 7B: AQ1-PEG36-Glu-C13-COOH (1.5 kD PEG) SQ at 40 mg/kg/day for 7 days. FIG. 7C: AQ1-20-kDa-PEG (20 kD PEG) SQ at 15 mg/kg/day for 10 days. FIG. 7D: AQ1-GGGGS-Glu^γ (SEQ ID NO: 139)-C14-COOH SQ at 40 mg/kg for 7 days. Magnification 40×, H&E.
AQ1-20 kDa-PEG was given to rats by subcutaneous administration at doses of 1, 5, and 15 mg/kg/day for 10 days. Following the final dose animals were euthanized, dissected, and kidney histopathology was performed. […] In contrast, vacuoles were not observed in renal tubular epithelial cells of rats dosed with Vehicle (150 mM Arg in 10 mM citrate buffer pH 5.5) subcutaneously for 10 days (FIG. 7A).
AQ1-PEG36-Glu-C13-COOH was given to rats by subcutaneous administration at doses of 10 and 40 mg/kg/day for 7 days. Following the final dose animals were euthanized, dissected, and kidney histopathology was performed.
AQ1-GGGGS-Glu^γ (SEQ ID NO: 139)-C14-COOH was given to rats by subcutaneous administration at doses of 5, 20, and 40 mg/kg/day for 7 days. Following the final dose animals were euthanized, dissected, and kidney histopathology was performed.

Series [3] can be described thus: In vivo pharmacokinetic (PK) studies in rats. Details: species or system Sprague-Dawley rats. The note with it: rat, male Sprague-Dawley rats, single SC dose 1.0 mg/kg, serum ELISA; for AUC(0-inf): read-out: Rat PK AUC Total; for level at time molar at 24 h: read-out: Rat PK C24. The essentials:
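Male Sprague-Dawley rats (n=3) given a single 1 mg/kg IV or SC dose of relaxin constructs in 20 mM histidine, 750 mM NaCl, pH 6.0; jugular serum sampled to 72 h. Serum relaxin by ELISA; Cmax, AUCinf, C24 and half-life from non-compartmental analysis of individual profiles.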

Series [4] in a line: Solubility observations. The conditions noted are these: data not shown.

In the case of Serelaxin, the first-phase pharmacokinetic half-life in series [1] is 5 to 15 min.
`CC[C@H](C)[C@@H]1NC(=O)[C@H](C)NC(=O)[C@H]([C@@H](C)CC)NC(=O)[C@H](CCC(N)=O)NC(=O)[C@H](C)NC(=O)[C@H](CCCNC(=N)N)NC(=O)[C@H](C(C)C)NC(=O)[C@H](CC(C)C)NC(=O)[C@H](CCC(=O)O)NC(=O)[C@H](CCCNC(=N)N)NC(=O)CNC(=O)[C@@H](NC(=O)[C@H](CC(C)C)NC(=O)[C@H](CCCCN)NC(=O)[C@@H](NC(=O)[C@@H](NC(=O)[C@H](CCC(=O)O)NC(=O)[C@H](CCC(=O)O)NC(=O)[C@H](CCSC)NC(=O)[C@H](Cc2c[nH]c3ccccc23)NC(=O)[C@H](CO)NC(=O)[C@H](C)N)C(C)C)[C@@H](C)CC)CSSC[C@@H]2NC(=O)[C@@H](NC(=O)[C@H](CCCCN)NC(=O)[C@H](CC(N)=O)NC(=O)[C@H](C)NC(=O)[C@H](CC(C)C)NC(=O)[C@H](C)NC(=O)[C@H](CO)NC(=O)[C@H](Cc3ccc(O)cc3)NC(=O)[C@H](CC(C)C)NC(=O)[C@@H](N)Cc3ccc(/C(C)=N/OCCNC(=O)CCOCCOCCOCCOCCOCCOCCOCCOCCOCCOCCOCCOCCOCCOCCOCCOCCOCCOCCOCCOCCOCCOCCOCCOCCOCCOCCOCCOCCOCCOCCOCCOCCOCCOCCOCCOCCNC(=O)CC[C@H](NC(=O)CCCCCCCCCCCCC(=O)O)C(=O)O)cc3)CSSC[C@H](NC(=O)CNC(=O)[C@H](C(C)C)NC(=O)[C@H](Cc3c[nH]cn3)NC2=O)C(=O)N[C@@H]([C@@H](C)O)C(=O)N[C@@H](CCCCN)C(=O)N[C@@H](CCCNC(=N)N)C(=O)N[C@@H](CO)C(=O)N[C@@H](CC(C)C)C(=O)N[C@@H](C)C(=O)N[C@@H](CCCNC(=N)N)C(=O)N[C@@H](Cc2ccccc2)C(=O)N[C@H](C(=O)O)CSSC[C@@H](C(=O)NCC(=O)N[C@@H](CCSC)C(=O)N[C@@H](CO)C(=O)N[C@H](C(=O)N[C@@H](Cc2c[nH]c3ccccc23)C(=O)N[C@@H](CO)C(=O)O)[C@@H](C)O)NC1=O` [AQ1-PEG36-Glu-C13-COOH]: the “vacuoles in renal tubular epithelial cells” value in series [2] (subcutaneous 10 and 40 mg/kg/day for 7 days) is reported as “marked cortical tubular vacuolation; also recorded: Vacuoles were observed”. For the same compound, in series [3], the AUC(0-inf) was determined as 1 µM·h and the level at time molar at 24 h was found to be 9.7 nM.
Turning to `CC[C@H](C)[C@@H]1NC(=O)[C@H](C)NC(=O)[C@H]([C@@H](C)CC)NC(=O)[C@H](CCC(N)=O)NC(=O)[C@H](C)NC(=O)[C@H](CCCNC(=N)N)NC(=O)[C@H](C(C)C)NC(=O)[C@H](CC(C)C)NC(=O)[C@H](CCC(=O)O)NC(=O)[C@H](CCCNC(=N)N)NC(=O)CNC(=O)[C@@H](NC(=O)[C@H](CC(C)C)NC(=O)[C@H](CCCCN)NC(=O)[C@@H](NC(=O)[C@@H](NC(=O)[C@H](CCC(=O)O)NC(=O)[C@H](CCC(=O)O)NC(=O)[C@H](CCSC)NC(=O)[C@H](Cc2c[nH]c3ccccc23)NC(=O)[C@H](CO)NC(=O)[C@H](C)N)C(C)C)[C@@H](C)CC)CSSC[C@@H]2NC(=O)[C@@H](NC(=O)[C@H](CCCCN)NC(=O)[C@H](CC(N)=O)NC(=O)[C@H](C)NC(=O)[C@H](CC(C)C)NC(=O)[C@H](C)NC(=O)[C@H](CO)NC(=O)[C@H](Cc3ccc(O)cc3)NC(=O)[C@H](CC(C)C)NC(=O)[C@@H](N)Cc3ccc(/C(C)=N/OCCNC(=O)CNC(=O)CNC(=O)CNC(=O)CNC(=O)[C@H](CO)NC(=O)CC[C@H](NC(=O)CCCCCCCCCCCCCC(=O)O)C(=O)O)cc3)CSSC[C@H](NC(=O)CNC(=O)[C@H](C(C)C)NC(=O)[C@H](Cc3c[nH]cn3)NC2=O)C(=O)N[C@@H]([C@@H](C)O)C(=O)N[C@@H](CCCCN)C(=O)N[C@@H](CCCNC(=N)N)C(=O)N[C@@H](CO)C(=O)N[C@@H](CC(C)C)C(=O)N[C@@H](C)C(=O)N[C@@H](CCCNC(=N)N)C(=O)N[C@@H](Cc2ccccc2)C(=O)N[C@H](C(=O)O)CSSC[C@@H](C(=O)NCC(=O)N[C@@H](CCSC)C(=O)N[C@@H](CO)C(=O)N[C@H](C(=O)N[C@@H](Cc2c[nH]c3ccccc23)C(=O)N[C@@H](CO)C(=O)O)[C@@H](C)O)NC1=O` [AQ1-GGGGS-Glu^γ-C14-COOH], in series [4], the solubility profile result was “favorable solubility profile”. Further, the “vacuoles in renal tubular epithelial cells” value in series [2] (subcutaneous 5, 20 and 40 mg/kg/day for 7 days, listed as AQ1-GGGGS-Glu^γ (SEQ ID NO: 139)-C14-COOH) was “Vacuoles are not observed; also recorded: no evidence of test-article related vacuoles”. Also, in series [3], the AUC(0-inf) stood at 2.31 µM·h and the level at time molar at 24 h worked out at 17 nM.
